In this test the target is T1, FluPolB (influenza B/Memphis/13/2003 polymerase heterotrimer) (influenza B/Memphis/13/2003, UniProt Q5V8Z9;Q5V8Y6;Q5V8X3).
T1 construct: copies: + +
Kind of test: SEC. Conditions: both partners purified.

B1: hANP32A LCAR alone (144-249) (domain or fragment)
chain: YLDGYDRDDKEAPDSDAEGYVEGLDDEEEDEDEEEYDEDAQVVEDEEDEDEEEEGEEEDVSGEEEEDEEGYNDGEVDDEEDEEELGEEERGQKRKREPEDEGEDDD
With B1, the binding result is “binds”.

Values taken from paper PMC11333492 (Nature Communications, 2024).
